Broadly, the EC50 (read off the curve) is the concentration needed to bring the measured effect to its halfway point. A word on the Kd: it is the concentration at which binding is half-saturated. The term koff denotes the rate constant with which the complex falls apart. For orientation: kon means the second-order rate constant of association.

These results are taken from patent US20230235073A1 (ONA THERAPEUTICS S L, published 2023).

Experiment [1] deals with T1, human CD36 on cells overexpressing human CD36 (human, UniProt P16671 2-472). The experiment is described as follows: FACS on cells overexpressing human CD36, MFI.
The target in experiment [2] is T2, mouse CD36 recombinant protein (Sino Biological, reference 50422-M08H) (mouse, UniProt Q08857 30-439).
T2 construct: Bought recombinant protein; also called murine CD36
In words: ELISA, plate coated with mouse CD36, OD630nm. As for the experimental part: (§1) To perform ELISA assays, 96-well ELISA plates were coated over night with human CD36 (Sino Biological, reference 10752-H08H) or mouse CD36 (Sino Biological, reference 50422-M08H) recombinant proteins at a concentration of 0.25 mg/ml. After two washes with PBS, plates were blocked with 4% skimmed milk in PBS for 1 hour at 37° C. Blocking solution was discarded and plates were washed five times with 200 μl/well PBS-Tween20 (0.5%). Primary antibodies were either omitted (control blocking solution treatment) or mixed in blocking solution at several dilutions ranging from 0.01 nM to 0.5 μM. The primary antibody solutions were added to the wells and incubated over night at 4° C. After 5 washes with 200 ul/well of PBS-Tween20 (0.5%), plates were incubated for 1 hour at room temperature with a goat anti-mouse HRP-conjugated antibody (Abeam, reference ab97235) diluted 1:2000 in blocking solution. Plates were then washed 5 times with 200 μl/well of PBS-Tween20 (0.5%), incubated with 100 μl/well TMB and detected after 10 minutes, 30 minutes, or 60 minutes with a spectrophotometer at a wave length of 630 nm.
For orientation: An ELISA detects its analyte on a solid surface through an enzyme-linked reagent.

Experiment [3] concerns the target T3, human CD36 recombinant protein (Sino Biological, reference 10752-H08H) (human, UniProt P16671 30-439).
T3 construct: Bought recombinant protein
The experiment is described as follows: ELISA, plate coated with human CD36, OD630nm. As to the method: as §1

The target of experiment [4] is T1, human CD36 on cells overexpressing …. In words: FACS on cells overexpressing human CD36, % of Binding. As for the experimental part:
For FACS analysis, cells were trypsinized, collected in a 15 mL tube and diluted in washing buffer (2% FBS in PBS). Cells were then centrifuged at 1500 rpm for 5 min at 4° C., supernatant was discarded, and cells were resuspended in fresh washing buffer. Anti-CD36 antibodies were either omitted (control wash buffer treatment) or serially diluted in washing buffer (dilution range up to 100 nM), and then added to the cells. Incubation was performed on ice for 1 hour. Cells were then centrifuged at 1500 rpm for 5 min at 4° C., supernatant was discarded, and cells were resuspended in fresh washing buffer. Finally, cells were incubated with a […] (BV421 Rat Anti-Mouse IgA, Becton Dickinson, reference 743293) diluted 1:100 in washing buffer, washed and analysed by FACS.

For experiment [5], the target named is T3, human CD36 recombinant protein (Sino …). In words: SPR Biacore T200, antibody captured on protein A, CD36 analyte, 2-state model. As to the method:
(§2) The affinity of ONA-0-v1, 1G04, and a commercial anti-CD36 antibody (JC63.1) for human CD36 was also measured by surface plasmon resonance (SPR) using a Biacore T200. 1G04 was analysed using a protein A capture surface, with a capture range of 100-150 RU and an antigen titration range of 3.3-333 nM. The mouse antibodies ONA-0-V1 and the commercial anti-CD36 antibody were analysed using an anti-mouse IgA capture surface, with a capture range of 160-180 RU and an antigen titration range of 3.3-333 nM. For each single analysis cycle a titration of five antigen concentrations were injected over the captured antibody and then the dissociation of the complex was measured. A double referencing method was employed in which data from the reference surfaces where no antibody was captured (fc 1 and 3 respectively) were subtracted from the antibody bound capture surface (fc 2 and 4). Blank injections of buffer were run for every antigen titration cycle and then subtracted from analyte injection cycles, to correct for small changes in the antibody capture surface density. All analysis was performed at 25° C., and the sample rack was kept at 6° C. during experimental runs. Each experiment was run at least three times with the mean binding constants generated from at least two independent assays reported. All analysis was performed in PBS-T running buffer at 40 μL/min.

Experiment [6] shares this target. The experiment is described as follows: SPR Biacore T200, antibody captured on protein A, CD36 analyte 3.3-333 nM, 1-to-1 model. As for the experimental part: as §2
In general terms: SPR reads the build-up and loss of mass on a sensor chip optically.

Experiment [7] has as its target T1, human CD36 on cells overexpressing …. In words: FACS on cells overexpressing human CD36, GeoMFI against Log10 mAb Concentration (nM).
Experiment [8] has as its target T3, human CD36 recombinant protein (Sino …). The experiment is described as follows: ELISA, plate coated with human CD36, OD630, panel 'Coating: human CD36'; Kd printed beside the 1G04 curve. As to the method:
as §1

The target of experiment [9] is T2, mouse CD36 recombinant protein (Sino …). The experiment is described as follows: ELISA, plate coated with mouse CD36, OD630, panel 'Coating: mouse CD36'; Kd printed beside the 1G04 curve. As to the method:
as §1

In experiment [10] the target is T3, human CD36 recombinant protein (Sino …). The experiment is described as follows: estimated from ELISA, CD36 coated on plate; human CD36 coated on plate. As for the experimental part:
as §1

The target of experiment [11] is T2, mouse CD36 recombinant protein (Sino …). The experiment is described as follows: estimated from ELISA, CD36 coated on plate; mouse CD36 coated on plate. As to the method: as §1
The target is the same in experiment [12]. In words: ELISA, plate coated with mouse CD36, OD630, panel 'Coating: mouse CD36'. As to the method: as §1
The target of experiment [13] is T3, human CD36 recombinant protein (Sino …). In words: SPR Biacore T200, antibody captured on anti-mouse IgA, CD36 analyte, 2-state model. As to the method: as §2
Experiment [14] has the same target. In words: SPR Biacore T200, antibody captured on anti-mouse IgA, CD36 analyte 3.3-333 nM, 1-to-1 model. As for the experimental part:
as §2

T3 sequence (P16671 30-439 limits assumed): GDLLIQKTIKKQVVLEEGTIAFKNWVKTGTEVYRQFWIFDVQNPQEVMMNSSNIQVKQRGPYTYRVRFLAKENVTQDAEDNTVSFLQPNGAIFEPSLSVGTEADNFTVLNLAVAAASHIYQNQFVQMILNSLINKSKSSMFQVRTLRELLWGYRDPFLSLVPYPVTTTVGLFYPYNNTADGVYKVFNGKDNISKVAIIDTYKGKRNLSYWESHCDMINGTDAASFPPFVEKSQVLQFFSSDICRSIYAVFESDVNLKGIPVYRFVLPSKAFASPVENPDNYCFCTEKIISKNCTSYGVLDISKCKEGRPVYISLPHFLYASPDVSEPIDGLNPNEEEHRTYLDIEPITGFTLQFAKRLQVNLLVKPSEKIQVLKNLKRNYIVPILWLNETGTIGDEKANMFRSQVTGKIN
T2 sequence (Q08857 30-439 limits assumed, stated change not applied): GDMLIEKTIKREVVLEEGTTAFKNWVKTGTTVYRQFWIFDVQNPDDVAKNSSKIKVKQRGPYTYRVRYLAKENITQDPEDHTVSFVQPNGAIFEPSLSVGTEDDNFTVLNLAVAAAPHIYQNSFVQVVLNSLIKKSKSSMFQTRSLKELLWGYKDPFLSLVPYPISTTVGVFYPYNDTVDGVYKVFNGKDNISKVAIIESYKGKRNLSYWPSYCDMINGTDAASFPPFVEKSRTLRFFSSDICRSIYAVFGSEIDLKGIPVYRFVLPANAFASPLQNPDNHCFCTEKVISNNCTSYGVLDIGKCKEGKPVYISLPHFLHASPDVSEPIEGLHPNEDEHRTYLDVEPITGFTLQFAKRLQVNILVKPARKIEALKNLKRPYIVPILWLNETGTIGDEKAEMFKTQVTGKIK
T1 sequence (P16671 2-472 limits assumed): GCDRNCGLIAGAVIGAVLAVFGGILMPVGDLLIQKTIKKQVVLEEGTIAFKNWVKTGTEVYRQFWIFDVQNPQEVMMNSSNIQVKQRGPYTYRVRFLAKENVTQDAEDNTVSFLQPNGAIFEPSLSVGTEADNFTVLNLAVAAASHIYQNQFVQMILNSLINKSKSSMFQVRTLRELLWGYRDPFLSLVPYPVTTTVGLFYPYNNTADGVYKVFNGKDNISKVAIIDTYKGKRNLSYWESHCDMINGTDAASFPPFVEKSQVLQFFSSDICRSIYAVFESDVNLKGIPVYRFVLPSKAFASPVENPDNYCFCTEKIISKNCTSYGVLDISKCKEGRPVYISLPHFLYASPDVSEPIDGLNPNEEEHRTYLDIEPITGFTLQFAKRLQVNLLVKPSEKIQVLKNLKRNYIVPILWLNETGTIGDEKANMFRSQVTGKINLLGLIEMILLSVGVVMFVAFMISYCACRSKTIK

B1: 1G04 (chimeric ONA-0-v1 IgG1 LALA antibody) (antibody)
heavy: not shown
light: SIVMTQTPKFLLVSAGDRITITCKASQSVSDDVAWYQQKPGQSPKLLIYYASNRYTGVPDRFTGSGYGTDFTFTISTVQAEDLAVYFCQQDYSSPLTFGAGTKLEIKRTVAAPSVFIFPPSDEQLKSGTASVVCLLNNFYPREAKVQWKVDNALQSGNSQESVTEQDSKDSTYSLSSTLTLSKADYEKHKVYACEVTHQGLSSPVTKSFNRGEC
notes: Human IgG1 with the LALA alteration, human kappa light chain; also called 1G04 (IgG1)
With B1, the “EC50 (read off the curve)” value in experiment [1] was about 0.2 nM; in experiment [2], about 0.3 nM; in [3], about 0.08 nM; in experiment [4], about 0.03 nM; in [7], about 0.4 nM. Moreover, the Kd was determined as 2.78 nM in experiment [5], 1.74 nM in [6], 0.04 nM in experiment [8] and 0.1 nM in experiment [9]. In addition, the koff in experiment [6] was found to be 0.000159 s⁻¹. Further, the kon in [6] stood at 100000 M⁻¹ s⁻¹.

B2: 1G06 antibody (chimeric ONA-0-v1 IgG1) (antibody)
heavy: QVQLKQSGADLVRPGASVKLSCKASGYTFTDYYINWVKQRPGQGLEWIARIYPGSGNTYYNEKFKGKATLTAEKSSSTAYMQLSSLTSEDSAVYFCARGIGGGFGMDYWGQGTSVTVSSASTKGPSVFPLAPSSKSTSGGTAALGCLVKDYFPEPVTVSWNSGALTSGVHTFPAVLQSSGLYSLSSVVTVPSSSLGTQTYICNVNHKPSNTKVDKKVEPKSCDKTHTCPPCPAPESTRGPSVFLFPPKPKDTLMISRTPEVTCVVVDVSHEDPEVKFNWYVDGVEVHNAKTKPREEQYNSTYRVVSVLTVLHQDWLNGKEYKCKVSNKALPAPIEKTISKAKGQPREPQVYTLPPSRDELTKNQVSLTCLVKGFYPSDIAVEWESNGQPENNYKTTPPVLDSDGSFFLYSKLTVDKSRWQQGNVFSCSVMHEALHNHYTQKSLSLSPGK
light: SIVMTQTPKFLLVSAGDRITITCKASQSVSDDVAWYQQKPGQSPKLLIYYASNRYTGVPDRFTGSGYGTDFTFTISTVQAEDLAVYFCQQDYSSPLTFGAGTKLEIKRTVAAPSVFIFPPSDEQLKSGTASVVCLLNNFYPREAKVQWKVDNALQSGNSQESVTEQDSKDSTYSLSSTLTLSKADYEKHKVYACEVTHQGLSSPVTKSFNRGEC
In the case of B2, the “EC50 (read off the curve)” value is about 0.08 nM in experiment [3] and about 0.4 nM in experiment [7].

B3: ONA-0-v1 anti-CD36 antibody (murine IgA) (antibody)
heavy: QVQLKQSGADLVRPGASVKLSCKASGYTFTDYYINWVKQRPGQGLEWIARIYPGSGNTYYNEKFKGKATLTAEKSSSTAYMQLSSLTSEDSAVYFCARGIGGGFGMDYWGQGTSVTVSSESARNPTIYPLTLPPVLCSDPVIIGCLIHDYFPFGTMNVTWGKSGKDITTVNFPPALASGGRYTMSSQLTLPAVECPEGESVKCSVQHDSNPVQELDVNCSPTPPPPITIPSCQPSLSLQRPALEDLLLGSDASITCTLNGLRNPEGAAFTWEPSTGKDAVQKKAAQNSCGCYSVSSVLPGCAERWNSGASFKCTVTHPESGTLTGTIAKVTVNTFPPQVHLLPPPSEELALNELLSLTCLVRAFNPKEVLVRWLHGNEELSPESYLVFEPLKEPGEGATTYLVTSVLRVSAETWKQGDQYSCMVGHEALPMNFTQKTIDRLSGKPTNVSVSVIMSEGDGICY
light: SIVMTQTPKFLLVSAGDRITITCKASQSVSDDVAWYQQKPGQSPKLLIYYASNRYTGVPDRFTGSGYGTDFTFTISTVQAEDLAVYFCQQDYSSPLTFGAGTKLEIKRADAAPTVSIFPPSSEQLTSGGASVVCFLNNFYPKDINVKWKIDGSERQNGVLNSWTDQDSKDSTYSMSSTLTLTKDEYERHNSYTCEATHKTSTSPIVKSFNRNEC
notes: mouse IgA constant region; produced in HEK 293 cells; also called ONA-0-v1 (IgA); ONA-O-v1 (IgA)
As to B3, the “EC50 (read off the curve)” value in experiment [4] is about 0.03 nM; in [12] it was about 1 nM. Further, the Kd in [10] is about 0.04 nM; in experiment [11], about 0.1 nM; in experiment [13] it was 8.72 nM; in experiment [14], 5.85 nM. In experiment [14], the koff was found to be 0.00354 s⁻¹. For the same molecule, in [14], the kon is 632000 M⁻¹ s⁻¹.
